Target: Patched 1 (Ptch1) receptor (mouse (endogenous in C3H10T1/2)) (UniProt Q61115)
Chain of UniProt Q61115 (Q61115 whole entry): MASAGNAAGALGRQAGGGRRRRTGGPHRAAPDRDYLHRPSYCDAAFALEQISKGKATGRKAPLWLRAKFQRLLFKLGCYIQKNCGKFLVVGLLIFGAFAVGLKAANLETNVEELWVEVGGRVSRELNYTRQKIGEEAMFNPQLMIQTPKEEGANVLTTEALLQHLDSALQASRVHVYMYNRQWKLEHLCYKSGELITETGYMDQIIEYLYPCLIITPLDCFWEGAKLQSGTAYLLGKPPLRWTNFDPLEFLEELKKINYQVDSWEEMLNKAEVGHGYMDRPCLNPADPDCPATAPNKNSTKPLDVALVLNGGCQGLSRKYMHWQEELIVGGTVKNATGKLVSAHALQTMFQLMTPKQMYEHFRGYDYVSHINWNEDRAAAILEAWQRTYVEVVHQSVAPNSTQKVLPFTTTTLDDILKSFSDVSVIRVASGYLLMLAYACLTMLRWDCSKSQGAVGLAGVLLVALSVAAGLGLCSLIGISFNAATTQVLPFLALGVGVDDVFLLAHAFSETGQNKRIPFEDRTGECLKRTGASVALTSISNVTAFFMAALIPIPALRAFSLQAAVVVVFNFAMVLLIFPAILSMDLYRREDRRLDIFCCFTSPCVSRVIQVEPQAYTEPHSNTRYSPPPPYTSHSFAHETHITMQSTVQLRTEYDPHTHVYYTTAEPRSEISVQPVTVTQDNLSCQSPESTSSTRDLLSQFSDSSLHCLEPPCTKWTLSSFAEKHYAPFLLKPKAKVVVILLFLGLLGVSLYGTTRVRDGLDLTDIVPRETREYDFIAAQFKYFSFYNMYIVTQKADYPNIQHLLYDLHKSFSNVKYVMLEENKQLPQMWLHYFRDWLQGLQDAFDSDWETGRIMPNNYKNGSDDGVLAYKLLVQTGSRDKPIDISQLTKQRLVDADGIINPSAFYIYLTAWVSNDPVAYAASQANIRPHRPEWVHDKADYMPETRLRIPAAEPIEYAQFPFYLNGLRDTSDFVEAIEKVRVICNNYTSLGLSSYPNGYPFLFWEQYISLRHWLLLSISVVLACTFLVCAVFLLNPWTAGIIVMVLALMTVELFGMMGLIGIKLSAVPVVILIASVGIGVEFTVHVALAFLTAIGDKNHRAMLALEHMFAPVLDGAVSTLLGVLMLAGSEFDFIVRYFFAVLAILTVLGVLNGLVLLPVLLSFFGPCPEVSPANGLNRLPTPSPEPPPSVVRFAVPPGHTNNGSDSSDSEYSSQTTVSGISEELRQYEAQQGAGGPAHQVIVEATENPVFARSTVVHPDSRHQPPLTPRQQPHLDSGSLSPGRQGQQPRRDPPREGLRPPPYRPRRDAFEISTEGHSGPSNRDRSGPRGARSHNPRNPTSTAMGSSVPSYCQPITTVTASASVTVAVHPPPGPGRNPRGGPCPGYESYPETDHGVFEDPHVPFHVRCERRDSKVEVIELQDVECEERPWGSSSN

Row | Substance | Alp1 activity of C3H10T1/2 cells (differentiation into osteoblasts) [au] | Alp1 activity of C3H10T1/2 cells (differentiation into osteoblasts), with the Shh-neutralising antibody 5E1 (1 µg/mL) [au]
1 | ^C25S;Δ26–35Shh^C (from UniProt Q62226 25-198) (ligand) | 0.38 | –
2 | ^C25S;Δ26–33Shh^C (from UniProt Q62226 25-198) (ligand) | 1.65 | –
3 | ^C25S;Δ26–32Shh^C (from UniProt Q62226 25-198) (ligand) | 1.26 | –
4 | ^C25S;Δ26–37Shh^C (from UniProt Q62226 25-198) (ligand) | 0.46 | –
5 | ^C25S;Δ26–38Shh^C (from UniProt Q62226 25-198) (ligand) | 0.36 | –
6 | ^C25S;Δ26–36Shh^C (from UniProt Q62226 25-198) (ligand) | 0.39 | –
7 | ^C25S;Δ26–31Shh^C (from UniProt Q62226 25-198) (ligand) | 1.41 | –
8 | ^C25S;Δ26–34Shh^C (from UniProt Q62226 25-198) (ligand) | 0.7 | –
9 | Shh^C, soluble depalmitoylated (N-terminally processed), C-cholesteroylated Sonic hedgehog released in the presence of 10% serum (ligand) | 1.5 | 0.26
10 | ^C25SShh^C, unpalmitoylated cholesteroylated soluble Shh (from UniProt Q62226 25-198) (ligand) | 1.71 | 0.21
